Broadly, the IC50 is the concentration that inhibits the measured activity by half. Broadly, the Vd/F is the volume of distribution divided by bioavailability.

The results in this text go back to patent US20090118167A1, “Selective Vpac2 Receptor Peptide Agonists” (Eli Lilly and Company Patent Division, priority 2004, published 2009).

Marks after values point to notes of the source that are not given here. Square brackets hold non-standard residues; d marks the D form. Ends that are not written are not given here. Nle = CCCC[C@H](N)C(=O)O; Orn = NCCC[C@H](N)C(=O)O; Aib = CC(C)(N)C(=O)O

One data set has as its target T1, human VPAC1 (Homo sapiens, UniProt P32241).
T1 construct: expressed in transfected cells
T1 sequence (P32241 31-457): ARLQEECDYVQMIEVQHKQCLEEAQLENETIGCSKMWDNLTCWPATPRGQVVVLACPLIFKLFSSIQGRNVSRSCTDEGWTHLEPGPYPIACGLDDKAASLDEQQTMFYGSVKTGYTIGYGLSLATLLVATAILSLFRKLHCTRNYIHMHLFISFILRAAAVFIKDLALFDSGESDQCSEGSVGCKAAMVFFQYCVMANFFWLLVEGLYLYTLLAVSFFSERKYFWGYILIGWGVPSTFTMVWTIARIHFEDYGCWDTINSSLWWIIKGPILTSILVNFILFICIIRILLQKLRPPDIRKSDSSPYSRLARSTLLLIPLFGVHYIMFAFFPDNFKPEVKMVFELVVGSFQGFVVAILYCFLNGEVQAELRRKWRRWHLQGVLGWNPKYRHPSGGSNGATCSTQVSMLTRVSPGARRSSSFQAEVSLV
The data set can be described thus: Filter binding assay, 125I-labeled VIP tracer. As to conditions: membranes from cells transiently transfected with human VPAC1; read-out: Human receptor binding IC50 VPAC1. How it is done: (§1) In order to prepare the filter plates, the presoak solution is aspirated by vacuum filtration. The plates are flushed twice with 200 μL flush buffer. 200 μL blocking buffer is added to the filter plate. The filter plate is then incubated with 200 μL presoak solution for 1 hour at room temperature.
(§2) The assay plate is filled with 25 μL assay buffer, 25 μL membranes (2.5 μg) suspended in assay buffer, 25 μL compound (agonist) in assay buffer, and 25 μL tracer (about 40000 cpm) in assay buffer. The filled plate is incubated for 1 hour with shaking.
(§3) The transfer from assay plate to filter plate is conducted. The blocking buffer is aspirated by vacuum filtration and washed two times with flush buffer. 90 μL is transferred from the assay plate to the filter plate. The 90 μL transferred from assay plate is aspirated and washed three times with 200 μL flush buffer. The plastic support is removed. It is dried for 1 hour at 60° C. 30 μL Microscint is added. The count is performed.
(§4) Values reported are single results or the mean of two or more independent runs.

For a further data set, the system named is Normal Wistar rats. In words: Intravenous glucose tolerance test (IVGTT). It is filed as in vivo, rat. The method, then: Intravenous glucose tolerance test (IVGTT): Normal Wistar rats are fasted overnight and are anesthetized prior to the experiment. A blood sampling catheter is inserted into the rats. The compound is given in the jugular vein. Blood samples are taken from the carotid artery. A blood sample is drawn immediately prior to the injection of glucose along with the compound. After the initial blood sample, glucose mixed with compound is injected intravenously (i.v.). Compound may also be injected intravenously or subcutaneously prior to the glucose challenge. A glucose challenge of 0.5 g/kg body weight is given, injecting a total of 1.5 mL vehicle with glucose and agonist per kg body weight. The peptide concentrations are varied to produce the desired dose in μg/kg. Blood samples are drawn at 2, 4, 6 and 10 minutes after giving glucose. The control group of animals receives the same vehicle along with glucose, but with no compound added. In some instances, a 30 minute post-glucose blood sample is drawn. Aprotinin is added to the blood sample (250-500 kIU/ml blood). The serum is then analyzed for glucose and insulin using standard methodologies.
The assay uses a formulated and calibrated peptide stock in PBS. Normally, this stock is a prediluted 100 μM stock. However, a more concentrated stock with approximately 1 mg agonist per mL is used. The specific concentration is always known. Variability in the maximal response is mostly due to variability in the vehicle dose.

The conditions of data set [1]: rat, in vivo, sc, 0.1 mg/kg. How it is done:
Healthy Fisher 344 rats (3 animals per group) are injected with 100 μg compound/kg (compound amount based on peptide content and dissolved in PBS buffer). […] PK parameters are then calculated using a model-independent method (WinNonlin Pro, Pharsight Corp., Mountain View, Calif., USA).

The target of another data set is T2, human PAC1 (Homo sapiens, UniProt P41586).
T2 construct: expressed in transfected cells; membranes)
T2 sequence (P41586 21-468): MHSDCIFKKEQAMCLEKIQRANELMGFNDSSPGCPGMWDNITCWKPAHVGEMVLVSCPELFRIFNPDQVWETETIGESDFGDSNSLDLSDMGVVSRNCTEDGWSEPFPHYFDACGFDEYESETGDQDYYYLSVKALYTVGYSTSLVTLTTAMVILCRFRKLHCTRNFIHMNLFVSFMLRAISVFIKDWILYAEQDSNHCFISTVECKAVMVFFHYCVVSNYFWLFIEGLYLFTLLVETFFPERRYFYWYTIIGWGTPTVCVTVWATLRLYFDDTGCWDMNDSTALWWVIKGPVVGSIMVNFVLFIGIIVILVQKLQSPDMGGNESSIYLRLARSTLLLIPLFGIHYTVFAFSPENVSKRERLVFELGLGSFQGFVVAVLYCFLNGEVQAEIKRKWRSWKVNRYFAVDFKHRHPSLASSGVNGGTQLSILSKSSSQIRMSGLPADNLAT
The data set can be described thus: Filter binding assay, 125I-labeled PACAP-27 tracer. As to conditions: membranes from cells transiently transfected with human PAC1; read-out: Human receptor binding IC50 PAC1. The method, then: as §1, §2, §3, §4

For data set [2], the target named is T3, human VPAC2 receptor (human, UniProt P41587 24-438).
T3 sequence (looked up): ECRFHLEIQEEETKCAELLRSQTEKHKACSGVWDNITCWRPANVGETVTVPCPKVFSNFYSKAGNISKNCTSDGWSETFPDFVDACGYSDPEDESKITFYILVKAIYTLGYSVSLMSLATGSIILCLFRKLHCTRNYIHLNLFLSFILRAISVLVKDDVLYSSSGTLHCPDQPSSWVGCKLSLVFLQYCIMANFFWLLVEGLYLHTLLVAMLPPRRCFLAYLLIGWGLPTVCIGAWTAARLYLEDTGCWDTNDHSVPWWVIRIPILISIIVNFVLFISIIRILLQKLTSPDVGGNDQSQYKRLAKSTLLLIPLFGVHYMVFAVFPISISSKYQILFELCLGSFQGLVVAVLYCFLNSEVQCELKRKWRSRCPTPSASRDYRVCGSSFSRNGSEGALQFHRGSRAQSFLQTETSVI
In words: cell-based or functional assay.

Data set [3] deals with T3, human VPAC2 receptor. The data set can be described thus: filter binding assay, human VPAC2 membranes, displacement of 125I-VIP. How it is done: as §2, §3

As for “P201: cyclic PEGylated VPAC2 receptor peptide agonist; P200 reacted with methoxy-PEG2-MAL-40K (HSDAVFTENYTKLRKQ[Nle]AAKKYLNDLKKGGPSSGAPPPC(methoxy‑PEG2‑MAL‑40K); ends and bridges not checked; also: cyclic, bridge kind and places not given here) [Agonist P201]”, in the data set with human VPAC1, the IC50 is more than 3000 nM. In addition, the “% increase AUC (insulin, 0-10 min after glucose)” value is “+146%” in the data set with Normal Wistar rats (Dose 10 μg/kg iv, 0 h between glucose & compound); “+104%” in the data set with Normal Wistar rats (Dose 10 μg/kg iv, 4 h between glucose & compound); “+191%” in the data set with Normal Wistar rats (Dose 30 μg/kg iv, 4 h between glucose & compound); “+183%” in the data set on Normal Wistar rats (Dose 100 μg/kg iv, 4 h between glucose & compound); “+209%” with Normal Wistar rats (Dose 300 μg/kg, given subcutaneously, 24 h between glucose & compound); “+89** %” with Normal Wistar rats (Dose was 90 μg/kg (column 100 μg/kg), given subcutaneously, 24 h between glucose & compound). For the same molecule, in data set [1], the AUC0-last is 8101 ng·h/mL. In data set [1], the Cl/F was 0.2 mL/min/kg. In addition, the Vd/F in data set [1] was 0.214 L/kg.

For the molecule “P239: cyclic PEGylated VPAC2 receptor peptide agonist (HSDAVFTENYTKLRKQ[Nle]AAKKYLNDLKQGGPSSGAPPPC; not fully specified (residue 39); ends and bridges not checked; also: cyclic, bridge type and places not given here, PEGylated, site not placed) [Agonist P239]”, the half-inhibitory concentration (IC50) in the data set with human VPAC1 is more than 3000 nM; in the data set with human PAC1, more than 25000 nM.

For “P255: cyclic PEGylated VPAC2 receptor peptide agonist (HSDAVFTENYTKL[Aib]KQ[Nle]AAKKYLNDLKQGGPSSGAPPPC; not fully specified (residue 39); ends and bridges not checked; also: cyclic, bridge type and places not given here, PEGylated, site not placed) [Agonist P255]”, the IC50 with human VPAC1 was more than 3000 nM. In data set [1], this molecule came in with an AUC0-last of 5797 ng·h/mL, a Cl/F of 0.283 mL/min/kg and a Vd/F of 0.389 L/kg. In the data set with human PAC1, the IC50 is more than 25000 nM.

With “P274: cyclic PEGylated VPAC2 receptor peptide agonist (HSDAVFTENYTKL[Aib]KQ[Nle]AAKKYLNDLKQKGGPSSGAPPPC; not fully specified (residue 40); ends and bridges not checked; also: cyclic, bridge type and places not given here, PEGylated, site not placed) [Agonist P274]”, the IC50 is more than 3000 nM with human VPAC1 and more than 25000 nM in the data set with human PAC1.

As for “P277: cyclic PEGylated VPAC2 receptor peptide agonist (HSDAVFTENYTKLRKQ[Nle]AAKKYLNDLKQGGPSSGAPPPC; ends and bridges not checked; also: cyclic, bridge type and places not given here, PEGylated, site not placed) [Agonist P277]”, the IC50 with human VPAC1 is more than 3000 nM; with human PAC1, more than 25000 nM.

Regarding “P279: cyclic PEGylated VPAC2 receptor peptide agonist (HSDAVFTENYTKLR[Aib]Q[Nle]AAKKYLNDLKKGGPSSGAPPPC; not fully specified (residue 39); ends and bridges not checked; also: cyclic, bridge type and places not given here, PEGylated, site not placed) [Agonist P279]”, the IC50 was more than 3000 nM in the data set with human VPAC1 and more than 25000 nM with human PAC1.

Take “P376: cyclic PEGylated VPAC2 receptor peptide agonist (HSDAVFTENYT[Orn]LR[Aib]Q[Nle]AA[Orn]KYLNDL[Orn][Orn]GGPSSGAPPPC; also: cyclic, bridge type and places not given here, PEGylated, site not placed) [Agonist P376]”: the IC50 is more than 3000 nM with human VPAC1 and more than 25000 nM with human PAC1.

For the molecule “P463: cyclic PEGylated VPAC2 receptor peptide agonist (HSDAVFTENYT[Orn]LR[Aib]Q[Nle]AA[Orn]KYLNDL[Orn][Orn]GGPSSGAPPPC; also: cyclic, bridge type and places not given here, PEGylated, site not given here) [Agonist P463]”, the 50% inhibitory concentration (IC50) with human VPAC1 was more than 3000 nM; with human PAC1, more than 25000 nM.

B1: P268 (cyclic PEGylated VPAC2 receptor peptide agonist) (peptide)
peptide: HSDAVFTENYTKLRKQ[Nle]AAKKYLNDLKQKGGPSSGAPPPC
modifications: ends and bridges not checked; also: cyclic bridge (lactam or disulfide), places not given here, PEGylated, site not given here
Regarding B1, the “EC50 for cAMP generation, Alpha screen” value in the data set with human VPAC2 receptor [2] was determined as 8.82 nM.

B2: P277 (cyclic PEGylated VPAC2 receptor peptide agonist) (peptide)
peptide: HSDAVFTENYTKLRKQ[Nle]AAKKYLNDLKQGGPSSGAPPPC
modifications: also: further groups not given here
Turning to B2, the “EC50 for cAMP generation, Alpha screen” value in the data set with human VPAC2 receptor [2] stood at 470 nM. Also, in the data set with human VPAC2 receptor [3], the IC50 was found to be 90.9 nM.

B3: P279 (cyclic PEGylated VPAC2 receptor peptide agonist) (peptide)
peptide: HSDAVFTENYTKLR[Aib]Q[Nle]AAKKYLNDLKKGGPSSGAPPPC
modifications: also: further groups not given here
For B3, the “EC50 for cAMP generation, Alpha screen” value with human VPAC2 receptor [2] was 5.93 nM. The IC50 with human VPAC2 receptor [3] was 7.2 nM.

B4: P274 (cyclic PEGylated VPAC2 receptor peptide agonist) (peptide)
peptide: HSDAVFTENYTKL[Aib]KQ[Nle]AAKKYLNDLKQKGGPSSGAPPPC
modifications: also: further groups not given here
Turning to B4, the “EC50 for cAMP generation, Alpha screen” value in the data set with human VPAC2 receptor [2] worked out at 76.1 nM. The same molecule yielded an IC50 with human VPAC2 receptor [3] of 126 nM.
